# Experimental data taken from IntAct's records for PubMed 11056176.
# B1: snRNA-activating protein complex subunit 4 (Homo sapiens), Q5SXM2 (parent)
# chain: MDVDAEREKITQEIKELERILDPGSSGSHVEISESSLESDSEADSLPSEDLDPADPPISEEERWGEASNDEDDPKDKTLPEDPETCLQLNMVYQEVIQEKLAEANLLLAQNREQQEELMRDLAGSKGTKVKDGKSLPPSTYMGHFMKPYFKDKVTGVGPPANEDTREKAAQGIKAFEELLVTKWKNWEKALLRKSVVSDRLQRLLQPKLLKLEYLHQKQSKVSSELERQALEKQGREAEKEIQDINQLPEEALLGNRLDSHDWEKISNINFEGSRSAEEIRKFWQNSEHPSINKQEWSREEEERLQAIAAAHGHLEWQKIAEELGTSRSAFQCLQKFQQHNKALKRKEWTEEEDRMLTQLVQEMRVGSHIPYRRIVYYMEGRDSMQLIYRWTKSLDPGLKKGYWAPEEDAKLLQAVAKYGEQDWFKIREEVPGRSDAQCRDRYLRRLHFSLKKGRWNLKEEEQLIELIEKYGVGHWAKIASELPHRSGSQCLSKWKIMMGKKQGLRRRRRRARHSVRWSSTSSSGSSSGSSGGSSSSSSSSSEEDEPEQAQAGEGDRALLSPQYMVPDMDLWVPARQSTSQPWRGGAGAWLGGPAASLSPPKGSSASQGGSKEASTTAAAPGEETSPVQVPARAHGPVPRSAQASHSADTRPAGAEKQALEGGRRLLTVPVETVLRVLRANTAARSCTQKEQLRQPPLPTSSPGVSSGDSVARSHVQWLRHRATQSGQRRWRHALHRRLLNRRLLLAVTPWVGDVVVPCTQASQRPAVVQTQADGLREQLQQARLASTPVFTLFTQLFHIDTAGCLEVVRERKALPPRLPQAGARDPPVHLLQASSSAQSTPGHLFPNVPAQEASKSASHKGSRRLASSRVERTLPQASLLASTGPRPKPKTVSELLQEKRLQEARAREATRGPVVLPSQLLVSSSVILQPPLPHTPHGRPAPGPTVLNVPLSGPGAPAAAKPGTSGSWQEAGTSAKDKRLSTMQALPLAPVFSEAEGTAPAASQAPALGPGQISVSCPESGLGQSQAPAASRKQGLPEAPPFLPAAPSPTPLPVQPLSLTHIGGPHVATSVPLPVTWVLTAQGLLPVPVPAVVSLPRPAGTPGPAGLLATLLPPLTETRAAQGPRAPALSSSWQPPANMNREPEPSCRTDTPAPPTHALSQSPAEADGSVAFVPGEAQVAREIPEPRTSSHADPPEAEPPWSGRLPAFGGVIPATEPRGTPGSPSGTQEPRGPLGLEKLPLRQPGPEKGALDLEKPPLPQPGPEKGALDLGLLSQEGEAATQQWLGGQRGVRVPLLGSRLPYQPPALCSLRALSGLLLHKKALEHKATSLVVGGEAERPAGALQASLGLVRGQLQDNPAYLLLRARFLAAFTLPALLATLAPQGVRTTLSVPSRVGSESEDEDLLSELELADRDGQPGCTTATCPIQGAPDSGKCSASSCLDTSNDPDDLDVLRTRHARHTRKRRRLV
# partner: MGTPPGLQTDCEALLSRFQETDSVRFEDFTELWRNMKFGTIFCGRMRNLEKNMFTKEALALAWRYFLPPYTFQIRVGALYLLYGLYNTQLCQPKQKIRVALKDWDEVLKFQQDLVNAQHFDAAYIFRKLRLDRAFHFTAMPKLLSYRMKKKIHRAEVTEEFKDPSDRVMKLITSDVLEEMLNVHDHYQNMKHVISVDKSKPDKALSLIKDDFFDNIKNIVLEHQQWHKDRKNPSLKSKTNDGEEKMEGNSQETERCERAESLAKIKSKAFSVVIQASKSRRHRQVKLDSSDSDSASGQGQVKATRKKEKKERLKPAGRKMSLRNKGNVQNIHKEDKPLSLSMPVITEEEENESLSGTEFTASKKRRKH
# B2: snRNA-activating protein complex subunit 4 (Homo sapiens), Q5SXM2 (parent)
# chain: B1 chain
# partner: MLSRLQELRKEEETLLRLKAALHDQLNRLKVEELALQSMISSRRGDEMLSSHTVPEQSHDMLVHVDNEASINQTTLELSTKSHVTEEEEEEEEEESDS
# B3: snRNA-activating protein complex subunit 5 (Homo sapiens), O75971 (parent)
# chain: B2 partner
# partner: B1 chain
# Variants of: B1
# Details: with snpc1_human SNAPC1, Q16533
row,Variant,effect of a mutation on the interaction
1,L1364A,disrupting interaction strength
2,L1297A;Q1304A,with no effect
3,L1355A;L1362A,disrupting interaction strength
4,L1314A,disrupting interaction strength
5,L1311A,decreasing interaction strength
6,L1369A,decreasing interaction strength
7,L1301A;L1308A,decreasing interaction strength

# Variants of: B2
# Details: with snpc5_human SNAPC5, O75971
row,Variant,effect of a mutation on the interaction
1,Q115L,disrupting interaction strength
2,L89A;V96A,decreasing interaction strength
3,L101A;L108A,disrupting interaction strength
4,Q94L,disrupting interaction strength
5,Q94A,disrupting interaction strength
6,Q115A;L122A,disrupting interaction strength
7,L87A;Q94A,disrupting interaction strength

# Variants of: B3
# Details: with snpc4_human SNAPC4, Q5SXM2
row,Variant,effect of a mutation on the interaction
1,L15A;L22A,disrupting interaction strength
2,L29A;L36A,disrupting interaction strength
3,L8A,decreasing interaction strength
4,L18A,decreasing interaction strength
